Reference: US20220135638A1 (Takeda / Millennium, published 2022)
Numbered stars: 1 amine (or outer) side, 2 acyl side, 3 side chain; on linkers, the order of the positions; unused ones are H or OH. Square brackets hold non-standard residues; d marks the D form. Primed or numbered codes have the meaning given here. Side chains are listed from the residue outwards. Ends that are not written are not given here. * marks the point of attachment. C20 diacid = O=C(O)CCCCCCCCCCCCCCCCCCC(=O)*; C18 diacid = O=C(O)CCCCCCCCCCCCCCCCC(=O)*; C16 diacid = O=C(O)CCCCCCCCCCCCCCC(=O)*; γGlu = O=C(O)[C@H](CCC(=O)[*:2])N[*:1]; Iva = CC[C@](C)(N)C(=O)O; PEG3′ = not defined here; Aib = CC(C)(N)C(=O)O

T1: full-length human GIPR (GenBank NM_000164) with an N-terminal FLAG tag on HEK-293T cells (human), P48546
T1 chain: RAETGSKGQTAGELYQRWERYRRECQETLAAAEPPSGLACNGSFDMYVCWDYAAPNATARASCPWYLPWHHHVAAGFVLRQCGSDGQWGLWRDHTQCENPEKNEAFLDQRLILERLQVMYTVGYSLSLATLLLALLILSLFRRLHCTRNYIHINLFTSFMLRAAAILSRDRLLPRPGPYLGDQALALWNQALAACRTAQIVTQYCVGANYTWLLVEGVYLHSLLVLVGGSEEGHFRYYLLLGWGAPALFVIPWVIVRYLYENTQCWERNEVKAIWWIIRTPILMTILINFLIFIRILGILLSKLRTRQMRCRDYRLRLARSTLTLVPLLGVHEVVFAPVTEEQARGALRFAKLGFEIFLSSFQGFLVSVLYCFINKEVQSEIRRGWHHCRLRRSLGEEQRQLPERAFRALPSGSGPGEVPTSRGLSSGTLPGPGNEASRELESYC

T2: full-length human GLP-1R (GenBank NM_002062) with an N-terminal FLAG tag on HEK-293T cells (human), P43220
T2 chain: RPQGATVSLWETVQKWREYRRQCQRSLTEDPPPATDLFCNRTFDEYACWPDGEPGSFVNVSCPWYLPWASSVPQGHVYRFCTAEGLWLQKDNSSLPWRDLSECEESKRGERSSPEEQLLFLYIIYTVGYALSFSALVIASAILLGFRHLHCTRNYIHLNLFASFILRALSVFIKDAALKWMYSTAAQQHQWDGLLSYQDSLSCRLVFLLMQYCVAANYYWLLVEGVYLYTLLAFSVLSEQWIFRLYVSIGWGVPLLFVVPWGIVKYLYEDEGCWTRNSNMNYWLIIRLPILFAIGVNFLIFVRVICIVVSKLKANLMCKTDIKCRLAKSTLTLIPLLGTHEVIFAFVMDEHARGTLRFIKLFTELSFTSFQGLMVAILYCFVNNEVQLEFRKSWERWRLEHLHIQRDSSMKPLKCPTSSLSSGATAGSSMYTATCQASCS

B1: Compound No. 535 (peptide)
peptide: Y[Aib]EGTFISDYSIALDR[Aib]HQ[Aib]NFVNW[Iva]LAQRPSSGAPPPK([PEG3′-γGlu-C20 diacid])
modifications: ends and bridges not checked
B2: Compound No. 515 (peptide)
peptide: Y[Aib]EGTFISDYSIALDR[Aib]HQ[Aib]NFVNW[Iva]LAQRPSK([PEG3′-γGlu-C16 diacid])GAPPPS
modifications: ends and bridges not checked
B3: Compound No. 532 (peptide)
peptide: Y[Aib]EGTFISDYSIALDR[Aib]HQ[Aib]NFVNW[Iva]LAQRPSSGAPPK([PEG3′-γGlu-C20 diacid])S
modifications: ends and bridges not checked
B4: Compound No. 517 (peptide)
peptide: Y[Aib]EGTFISDYSIALDR[Aib]HQ[Aib]NFVNW[Iva]LAQRPSK([PEG3′-γGlu-C20 diacid])GAPPPS
modifications: ends and bridges not checked
B5: Compound No. 533 (peptide)
peptide: Y[Aib]EGTFISDYSIALDR[Aib]HQ[Aib]NFVNW[Iva]LAQRPSSGAPPPK([PEG3′-γGlu-C16 diacid])
modifications: ends and bridges not checked
B6: Compound No. 534 (peptide)
peptide: Y[Aib]EGTFISDYSIALDR[Aib]HQ[Aib]NFVNW[Iva]LAQRPSSGAPPPK([PEG3′-γGlu-C18 diacid])
modifications: ends and bridges not checked
B7: Compound No. 516 (peptide)
peptide: Y[Aib]EGTFISDYSIALDR[Aib]HQ[Aib]NFVNW[Iva]LAQRPSK([PEG3′-γGlu-C18 diacid])GAPPPS
modifications: ends and bridges not checked
B8: Compound No. 512 (peptide)
peptide: Y[Aib]EGTFISDYSIALDR[Aib]HQ[Aib]NFVNW[Iva]LAQRPK([PEG3′-γGlu-C16 diacid])SGAPPPSS
modifications: ends and bridges not checked
B9: Compound No. 511 (peptide)
peptide: Y[Aib]EGTFISDYSIALDR[Aib]HQ[Aib]NFVNW[Iva]LAQRK([PEG3′-γGlu-C20 diacid])SSGAPPPS
modifications: ends and bridges not checked
B10: Compound No. 522 (peptide)
peptide: Y[Aib]EGTFISDYSIALDR[Aib]HQ[Aib]NFVNW[Iva]LAQRPSSGK([PEG3′-γGlu-C18 diacid])PPPS
modifications: ends and bridges not checked
B11: Compound No. 509 (peptide)
peptide: Y[Aib]EGTFISDYSIALDR[Aib]HQ[Aib]NFVNW[Iva]LAQRK([PEG3′-γGlu-C16 diacid])SSGAPPPS
modifications: ends and bridges not checked
B12: Compound No. 520 (peptide)
peptide: Y[Aib]EGTFISDYSIALDR[Aib]HQ[Aib]NFVNW[Iva]LAQRPSSK([PEG3′-γGlu-C20 diacid])APPPS
modifications: ends and bridges not checked
B13: Compound No. 524 (peptide)
peptide: Y[Aib]EGTFISDYSIALDR[Aib]HQ[Aib]NFVNW[Iva]LAQRPSSGAK([PEG3′-γGlu-C16 diacid])PPS
modifications: ends and bridges not checked
B14: Compound No. 521 (peptide)
peptide: Y[Aib]EGTFISDYSIALDR[Aib]HQ[Aib]NFVNW[Iva]LAQRPSSGK([PEG3′-γGlu-C16 diacid])PPPS
modifications: ends and bridges not checked
B15: Compound No. 513 (peptide)
peptide: Y[Aib]EGTFISDYSIALDR[Aib]HQ[Aib]NFVNW[Iva]LAQRPK([PEG3′-γGlu-C18 diacid])SGAPPPS
modifications: ends and bridges not checked
B16: Compound No. 514 (peptide)
peptide: Y[Aib]EGTFISDYSIALDR[Aib]HQ[Aib]NFVNW[Iva]LAQRPK([PEG3′-γGlu-C20 diacid])SGAPPPS
modifications: ends and bridges not checked
B17: Compound No. 526 (peptide)
peptide: Y[Aib]EGTFISDYSIALDR[Aib]HQ[Aib]NFVNW[Iva]LAQRPSSGAK([PEG3′-γGlu-C20 diacid])PPS
modifications: ends and bridges not checked
B18: Compound No. 528 (peptide)
peptide: Y[Aib]EGTFISDYSIALDR[Aib]HQ[Aib]NFVNW[Iva]LAQRPSSGAPK([PEG3′-γGlu-C18 diacid])PS
modifications: ends and bridges not checked
B19: Compound No. 529 (peptide)
peptide: Y[Aib]EGTFISDYSIALDR[Aib]HQ[Aib]NFVNW[Iva]LAQRPSSGAPK([PEG3′-γGlu-C20 diacid])PS
modifications: ends and bridges not checked
B20: Compound No. 519 (peptide)
peptide: Y[Aib]EGTFISDYSIALDR[Aib]HQ[Aib]NFVNW[Iva]LAQRPSSK([PEG3′-γGlu-C18 diacid])APPPS
modifications: ends and bridges not checked
B21: Compound No. 505 (peptide)
peptide: Y[Aib]EGTFISDYSIALDR[Aib]HQ[Aib]NFVNW[Iva]LAQRPSSGAPK([PEG3′-PEG3′-γGlu-C20 diacid])PS
modifications: ends and bridges not checked
B22: Compound No. 523 (peptide)
peptide: Y[Aib]EGTFISDYSIALDR[Aib]HQ[Aib]NFVNW[Iva]LAQRPSSGK([PEG3′-γGlu-C20 diacid])PPPS
modifications: ends and bridges not checked
B23: Compound No. 525 (peptide)
peptide: Y[Aib]EGTFISDYSIALDR[Aib]HQ[Aib]NFVNW[Iva]LAQRPSSGAK([PEG3′-γGlu-C18 diacid])PPS
modifications: ends and bridges not checked
B24: Compound No. 531 (peptide)
peptide: Y[Aib]EGTFISDYSIALDR[Aib]HQ[Aib]NFVNW[Iva]LAQRPSSGAPPK([PEG3′-γGlu-C18 diacid])S
modifications: ends and bridges not checked
B25: Compound No. 530 (peptide)
peptide: Y[Aib]EGTFISDYSIALDR[Aib]HQ[Aib]NFVNW[Iva]LAQRPSSGAPPK([PEG3′-γGlu-C16 diacid])S
modifications: ends and bridges not checked
B26: Compound No. 518 (peptide)
peptide: Y[Aib]EGTFISDYSIALDR[Aib]HQ[Aib]NFVNW[Iva]LAQRPSSK([PEG3′-γGlu-C16 diacid])APPPS
modifications: ends and bridges not checked
B27: Compound No. 527 (peptide)
peptide: Y[Aib]EGTFISDYSIALDR[Aib]HQ[Aib]NFVNW[Iva]LAQRPSSGAPK([PEG3′-γGlu-C16 diacid])PS
modifications: ends and bridges not checked
B28: Compound No. 510 (peptide)
peptide: Y[Aib]EGTFISDYSIALDR[Aib]HQ[Aib]NFVNW[Iva]LAQRK([PEG3′-γGlu-C18 diacid])SSGAPPPS
modifications: ends and bridges not checked

Assays:
[1] = biological target: T1, full-length human GIPR (GenBank …); experiment: cell-based or functional assay
[2] = biological target: T2, full-length human GLP-1R (GenBank …); experiment: cell-based or functional assay

| Binder | GIP EC50(pM) [1] [pM] | GLP EC50 [2] [µM] |
| --- | --- | --- |
| B1 | 1.54 | > 1 |
| B2 | 0.54 | > 1 |
| B3 | 2.05 | > 1 |
| B4 | 1.99 | > 1 |
| B5 | 0.59 | 0.776 |
| B6 | 0.81 | > 1 |
| B7 | 1.02 | > 1 |
| B8 | 0.53 | 0.126 |
| B9 | 1.61 | > 1 |
| B10 | 1.51 | > 1 |
| B11 | 0.54 | > 1 |
| B12 | 2.68 | > 1 |
| B13 | 1.29 | > 1 |
| B14 | 0.9 | > 1 |
| B15 | 0.5 | > 1 |
| B16 | 1.14 | > 1 |
| B17 | 1.5 | > 1 |
| B18 | 0.87 | > 1 |
| B19 | 1.3 | > 1 |
| B20 | 1.26 | > 1 |
| B21 | 2.11 | > 1 |
| B22 | 2.98 | > 1 |
| B23 | 0.82 | > 1 |
| B24 | 1.02 | > 1 |
| B25 | 0.36 | > 1 |
| B26 | 0.61 | > 1 |
| B27 | 0.37 | 0.479 |
| B28 | 0.83 | > 1 |
